Laboratory results from US20210238260.
Numbering of substitutions follows the chain as printed. Names may count otherwise.

Legend:
[1] = molecular target: T1, Antithrombin III (plasma purified human AT-III, Molecular Innovations); assay: same assay; ratio to recombinant wild-type FIXa (Catalyst Biosciences WT)
[2] = molecular target: T1, Antithrombin III (plasma purified human …); assay: AT-III/UFH inhibition: FIXa variant incubated with AT-III dilutions in excess unfractionated heparin, residual cleavage of Mesyl-D-CHG-Gly-Arg-AMC; K0.5 = AT-III concentration for 50% inhibition (IC50)
[3] = molecular target: Factor X, P00742
Factor X, P00742, sequence (P00742 whole entry, looked up): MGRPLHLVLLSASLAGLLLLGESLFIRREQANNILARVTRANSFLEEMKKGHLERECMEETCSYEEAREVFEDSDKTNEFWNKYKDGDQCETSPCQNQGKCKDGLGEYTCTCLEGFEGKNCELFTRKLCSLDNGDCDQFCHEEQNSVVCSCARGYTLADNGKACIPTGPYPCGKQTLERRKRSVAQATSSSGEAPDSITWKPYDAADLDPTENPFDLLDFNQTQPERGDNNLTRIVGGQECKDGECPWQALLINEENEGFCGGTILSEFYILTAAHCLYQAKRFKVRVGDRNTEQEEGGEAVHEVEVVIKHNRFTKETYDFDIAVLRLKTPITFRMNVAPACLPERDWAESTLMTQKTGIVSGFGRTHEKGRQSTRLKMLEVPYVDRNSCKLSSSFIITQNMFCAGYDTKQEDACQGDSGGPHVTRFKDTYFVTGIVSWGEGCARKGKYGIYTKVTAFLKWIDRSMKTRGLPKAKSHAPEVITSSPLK

[4] = molecular target: Factor X (FX), P00742
Factor X (FX), P00742, sequence (P00742 whole entry, looked up): as above

[5] = molecular target: antithrombin III (plasma purified human AT-III), used as the AT-III/unfractionated heparin complex; assay: K0.5 ratio to Catalyst Biosciences WT FIXa, AT-III/UFH inhibition assay
[6] = molecular target: plasma purified human AT-III (antithrombin III); assay: AT-III/UFH inhibition K0.5, ratio to Catalyst Biosciences WT FIXa
[7] = molecular target: plasma purified human antithrombin III (AT-III), as complex with unfractionated heparin; assay: ratio of K0.5 to Catalyst Biosciences WT FIXa, AT-III/UFH inhibition

B1: FIXa-D203N/F205T/K228N (protein)
chain 1: YNSGKLEEFVQGNLERECMEEKCSFEEAREVFENTERTTEFWKQYVDGDQCESNPCLNGGSCKDDINSYECWCPFGFEGKNCELDVTCNIKNGRCEQFCKNSADNKVVCSCTEGYRLAENQKSCEPAVPFPCGRVSVSQTSKLTR
chain 2: VVGGEDAKPGQFPWQVVLNGKVNATCGGSIVNEKWIVTAAHCVETGVNITVVAGEHNIEETEHTEQKRNVIRIIPHHNYNAAINKYNHDIALLELDEPLVLNSYVTPICIADKEYTNIFLKFGSGYVSGWGRVFHKGRSALVLQYLRVPLVDRATCLRSTKFTIYNNMFCAGFHEGGRDSCQGDSGGPHVTEVEGTSFLTGIISWGEECAMKGKYGIYTKVSRYVNWIKEKTKLT
- K0.5-mut/K0.5-wt [1]: 42.5
- K0.5 [2]: 822 nM
- KM [3]: 0.0399 µM
- % of WT kcat/KM [4]: 31%
- kcat [4]: 0.6 s⁻¹
- kcat/KM [4]: 1.4e+07 M⁻¹ s⁻¹
- K0.5-mut/K0.5-wt [5]: 42.5 fold

B2: FIXa-R338E/R403E/E410N (protein)
chain 1: B1 chain 1
chain 2: B1 chain 2 with N23D, T25F, N48K, R158E, R223E, E230N
- K0.5-mut/K0.5-wt [1]: 122
- K0.5 [2]: 2350 nM
- KM [3]: 0.0455 µM
- K0.5-mut/K0.5-wt [5]: 122 fold

B3: FIXa-D203N/F205T/R338E (protein)
chain 1: B1 chain 1
chain 2: B1 chain 2 with N48K, R158E
- K0.5-mut/K0.5-wt [1]: 60.5
- K0.5 [2]: 1170 nM
- KM [3]: 0.0241 µM
- % of WT kcat/KM [4]: 234%
- kcat [4]: 2.5 s⁻¹
- kcat/KM [4]: 1e+08 M⁻¹ s⁻¹
- K0.5-mut/K0.5-wt [5]: 60.5 fold

B4: FIXa-A103N/N105S/K247N/N249S/R318Y/R338E/R403E/E410N (protein)
chain 1: B1 chain 1 with A103N, N105S
chain 2: B1 chain 2 with N23D, T25F, N48K, K67N, N69S, R138Y, R158E, R223E, E230N
- K0.5-mut/K0.5-wt [6]: 129
- K0.5-mut/K0.5-wt [7]: 129
- % of WT kcat/KM [3]: 232%
- KM [3]: 0.0397 µM
- kcat/KM [3]: 1e+08 M⁻¹ s⁻¹
- % of WT kcat/KM [4]: 324%
- kcat [4]: 4.1 s⁻¹
- kcat/KM [4]: 1.5e+08 M⁻¹ s⁻¹

B5: FIXa-K228N/R338E/R403E (protein)
chain 1: B1 chain 1
chain 2: B1 chain 2 with N23D, T25F, R158E, R223E
- K0.5-mut/K0.5-wt [1]: 86.8
- K0.5 [2]: 1680 nM
- KM [3]: 0.0592 µM
- K0.5-mut/K0.5-wt [5]: 86.8 fold

B6: FIXa-Y155F/N260S/R318Y/R338E/R403E/E410N (protein)
chain 1: B1 chain 1
chain 2: B1 chain 2 with N23D, T25F, N48K, N80S, R138Y, R158E, R223E, E230N
- K0.5-mut/K0.5-wt [6]: 501
- K0.5-mut/K0.5-wt [7]: 501
- % of WT kcat/KM [3]: 156%
- kcat [3]: 5.8 s⁻¹
- kcat/KM [3]: 7e+07 M⁻¹ s⁻¹
- KM [4]: 0.0839 µM
- kcat of FX activation by FIXa (Xase complex with FVIIIa, PC/PS vesicles, Ca2+) [4]: 5.8 s⁻¹

B7: FIXa-R318Y/R338E/T412A (protein)
chain 1: B1 chain 1
chain 2: B1 chain 2 with N23D, T25F, N48K, R138Y, R158E, T232A
- K0.5-mut/K0.5-wt [6]: 396
- K0.5-mut/K0.5-wt [7]: 396
- % of WT kcat/KM [3]: 661%
- kcat [3]: 7 s⁻¹
- kcat/KM [3]: 3e+08 M⁻¹ s⁻¹
- KM [4]: 0.0235 µM
- kcat of FX activation by FIXa (Xase complex with FVIIIa, PC/PS vesicles, Ca2+) [4]: 7 s⁻¹

B8: FIXa-D104N/K106S/R318Y/R338E/E410N (protein)
chain 1: B1 chain 1 with D104N, K106S
chain 2: B1 chain 2 with N23D, T25F, N48K, R138Y, R158E, E230N
- K0.5-mut/K0.5-wt [1]: 327
- K0.5 [2]: 6330 nM
- KM [3]: 0.0189 µM
- kcat [4]: 4.8 s⁻¹
- K0.5-mut/K0.5-wt [5]: 327 fold

B9: FIXa-Y155F/K228N/K247N/N249S (protein)
chain 1: B1 chain 1
chain 2: B1 chain 2 with N23D, T25F, K67N, N69S
- K0.5-mut/K0.5-wt [6]: 1.4
- K0.5-mut/K0.5-wt [7]: 1.4
- % of WT kcat/KM [3]: 118%
- kcat [3]: 4.3 s⁻¹
- kcat/KM [3]: 5.3e+07 M⁻¹ s⁻¹
- KM [4]: 0.0792 µM
- kcat of FX activation by FIXa (Xase complex with FVIIIa, PC/PS vesicles, Ca2+) [4]: 4.3 s⁻¹

B10: FIXa-D203N/F205T/R338A (protein)
chain 1: B1 chain 1
chain 2: B1 chain 2 with N48K, R158A
- K0.5-mut/K0.5-wt [1]: 21.9
- K0.5 [2]: 423 nM
- KM [3]: 0.0385 µM
- % of WT kcat/KM [4]: 139%
- kcat [4]: 2.3 s⁻¹
- kcat/KM [4]: 6.2e+07 M⁻¹ s⁻¹
- K0.5-mut/K0.5-wt [5]: 21.9 fold

B11: FIXa-D104N/K106S/Y155F/K228N/K247N/N249S (protein)
chain 1: B1 chain 1 with D104N, K106S
chain 2: B1 chain 2 with N23D, T25F, K67N, N69S
- K0.5-mut/K0.5-wt [6]: 1.6
- K0.5-mut/K0.5-wt [7]: 1.6
- % of WT kcat/KM [3]: 142%
- KM [3]: 0.0753 µM
- kcat/KM [3]: 6.3e+07 M⁻¹ s⁻¹
- % of WT kcat/KM [4]: 137%
- kcat [4]: 4.7 s⁻¹
- kcat of FX activation by FIXa (Xase complex with FVIIIa, PC/PS vesicles, Ca2+) [4]: 4.7 s⁻¹
- kcat/KM [4]: 6.3e+07 M⁻¹ s⁻¹

B12: FIXa-K228N/R318Y/E410N (protein)
chain 1: B1 chain 1
chain 2: B1 chain 2 with N23D, T25F, R138Y, E230N
- K0.5-mut/K0.5-wt [1]: 24.6
- K0.5 [2]: 475 nM
- KM [3]: 0.042 µM
- kcat [4]: 5 s⁻¹
- K0.5-mut/K0.5-wt [5]: 24.6 fold

B13: FIXa-R318Y/R338E/E410N (protein)
chain 1: B1 chain 1
chain 2: B1 chain 2 with N23D, T25F, N48K, R138Y, R158E, E230N
- K0.5-mut/K0.5-wt [1]: 179
- K0.5 [2]: 3460 nM
- KM [3]: 0.0142 µM
- K0.5-mut/K0.5-wt [5]: 179 fold

B14: FIXa-D203N/F205T/R318Y (protein)
chain 1: B1 chain 1
chain 2: B1 chain 2 with N48K, R138Y
- K0.5-mut/K0.5-wt [1]: 374
- K0.5 [2]: 7230 nM
- KM [3]: 0.0475 µM
- % of WT kcat/KM [4]: 45%
- kcat [4]: 0.9 s⁻¹
- kcat/KM [4]: 2e+07 M⁻¹ s⁻¹
- K0.5-mut/K0.5-wt [5]: 374 fold

B15: FIXa-Y155F/K247N/N249S/R318Y/R338E/E410N (protein)
chain 1: B1 chain 1
chain 2: B1 chain 2 with N23D, T25F, N48K, K67N, N69S, R138Y, R158E, E230N
- K0.5-mut/K0.5-wt [6]: 200
- K0.5-mut/K0.5-wt [7]: 200
- % of WT kcat/KM [3]: 674%
- KM [3]: 0.0153 µM
- kcat/KM [3]: 3e+08 M⁻¹ s⁻¹
- % of WT kcat/KM [4]: 717%
- kcat [4]: 4.3 s⁻¹
- kcat/KM [4]: 3.3e+08 M⁻¹ s⁻¹

B16: FIXa-K247N/N249S/R318Y/R338E/E410N (protein)
chain 1: B1 chain 1
chain 2: B1 chain 2 with N23D, T25F, N48K, K67N, N69S, R138Y, R158E, E230N
- K0.5-mut/K0.5-wt [6]: 78.3
- K0.5-mut/K0.5-wt [7]: 78.3
- % of WT kcat/KM [3]: 516%
- KM [3]: 0.0166 µM
- kcat/KM [3]: 2.3e+08 M⁻¹ s⁻¹
- % of WT kcat/KM [4]: 501%
- kcat [4]: 3.8 s⁻¹
- kcat/KM [4]: 2.3e+08 M⁻¹ s⁻¹

B17: FIXa-D203N/F205T/E410N (protein)
chain 1: B1 chain 1
chain 2: B1 chain 2 with N48K, E230N
- K0.5-mut/K0.5-wt [1]: 19.5
- K0.5 [2]: 377 nM
- KM [3]: 0.0455 µM
- % of WT kcat/KM [4]: 94%
- kcat [4]: 1.7 s⁻¹
- kcat/KM [4]: 4.2e+07 M⁻¹ s⁻¹
- K0.5-mut/K0.5-wt [5]: 19.5 fold

B18: FIXa-Y155F/R318Y/R338E/E410N (protein)
chain 1: B1 chain 1
chain 2: B1 chain 2 with N23D, T25F, N48K, R138Y, R158E, E230N
- K0.5-mut/K0.5-wt [1]: 56.8
- K0.5 [2]: 1100 nM
- KM [3]: 0.016 µM
- kcat [4]: 5.6 s⁻¹
- K0.5-mut/K0.5-wt [5]: 56.8 fold

B19: FIXa-D203N/F205T/R338E/R403E (protein)
chain 1: B1 chain 1
chain 2: B1 chain 2 with N48K, R158E, R223E
- K0.5-mut/K0.5-wt [1]: 78.6
- K0.5 [2]: 1520 nM
- KM [3]: 0.0511 µM
- % of WT kcat/KM [4]: 42%
- kcat [4]: 0.9 s⁻¹
- kcat/KM [4]: 1.9e+07 M⁻¹ s⁻¹
- K0.5-mut/K0.5-wt [5]: 78.6 fold
